In experiment [1] the target is T1, human transglutaminase type 2 (TG2) (human, UniProt P21980 2-687).
T1 sequence: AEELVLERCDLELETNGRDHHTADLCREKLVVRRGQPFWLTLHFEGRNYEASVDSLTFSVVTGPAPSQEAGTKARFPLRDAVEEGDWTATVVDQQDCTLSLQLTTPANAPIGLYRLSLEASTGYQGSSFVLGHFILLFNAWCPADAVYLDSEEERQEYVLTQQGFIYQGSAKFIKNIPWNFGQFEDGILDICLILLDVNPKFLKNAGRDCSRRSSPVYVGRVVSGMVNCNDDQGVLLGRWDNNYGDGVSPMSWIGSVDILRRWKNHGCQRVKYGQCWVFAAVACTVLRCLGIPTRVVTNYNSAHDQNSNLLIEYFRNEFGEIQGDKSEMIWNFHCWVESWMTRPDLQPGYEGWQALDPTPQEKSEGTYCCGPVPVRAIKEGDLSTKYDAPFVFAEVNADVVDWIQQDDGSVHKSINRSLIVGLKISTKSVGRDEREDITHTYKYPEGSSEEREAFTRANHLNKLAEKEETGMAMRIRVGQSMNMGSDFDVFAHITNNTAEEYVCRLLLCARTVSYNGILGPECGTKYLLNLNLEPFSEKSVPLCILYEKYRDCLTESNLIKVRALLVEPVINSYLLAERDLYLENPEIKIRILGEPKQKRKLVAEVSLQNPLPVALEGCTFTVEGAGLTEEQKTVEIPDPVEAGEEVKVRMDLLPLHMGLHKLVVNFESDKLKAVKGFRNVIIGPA
The experiment can be described thus: cell-based or functional assay.

The target in a further experiment is rabbit TG2 (rabbit). In words: cell-based or functional assay.

B1: Zampilimab (antibody, V domains shown)
VH: EVQLLESGGGLVQPGGSLRLSCAASGFTLSTHAMSWVRQAPGKGLEWVATISSGGRSTYYPDSVKGRFTISRDNSKNTLYLQMNSLRAEDTAVYFCARLISTYWGQGTLVTVSS
VL: DITMTQSPSSLSASVGDRVTITCKASQDINSYLTWFQQKPGKAPKILIYLVNRLVDGVPSRFSGSGSGQDYALTISSLQPEDFATYYCLQYDDFPYTFGQGTKVEIK
As to B1, the “IC50 against human TG2” value in experiment [1] came to 0.25 nM. In addition, the “IC50 against rabbit TG2” value with rabbit TG2 was determined as 103 nM.

B2: rbBB7 (antibody, V domains shown)
VH: EVQLLESGGRLVTPGGSLTLTCAASGIIFSSSAMSWVRQAPGKGLEWVATISSGGRSTYYPDSVKGRFTVSRDSSKNTLYLQMNSLRAEDTAVYYCAKLISPYWGQGTLVTVSS
VL: AIKMTQTPSSVSAAVGGTVTISCKASQDINSYLTWFQQKPGQPPKTLIYLTNRLMDGVPSRFSGSGSGQEFLLTISGLECDDAATYYCLQYVDFPYTFGGGTKVVVK
In the case of B2, in experiment [1], the “IC50 against human TG2” value was found to be 0.3 nM. For the same molecule, the “IC50 against rabbit TG2” value with rabbit TG2 came to 8 nM.

For the origin of these results see patent publication US20250026856A1 (UCB, published 2025).
